Assay [1] addresses nanobody‐based trispecific T cell engager (Nb‐TriTE) (human, UniProt P01857 = IgG part). Nature of the assay: SPR.
The target of a further assay is Muromonab. The assay is described as follows: SPR.

The text below walks through data of PMC11538689 (2024).

B1: rhCD3 (protein)
chain: DGNEEMGGITQTPYKVSISGTTVILTCPQYPGSEILWQHNDKNIGGDEDDKNIGSDEDHLSLKEFSELEQSGYYVCYPRGSKPEDANFYLYLRARVCENCMEMD
In the case of B1, the Kd (as a rule, the constant that tells how readily two partners part at equilibrium) was 0.337 nM in assay [1] and 7.68 nM in the assay with Muromonab.
